Assay results published in PMC4163903.

Test system: ABD-B homeodomain (ABD-B HD) (Drosophila)
Assay: EMSA

abd-A probe
Kd: 5.48 nM
